For two substances, stoichiometry N and relative binding (% of the day 0 response) after 7 days results are on record in paper PMC4972253.

Experiment [1] deals with JRFL NFL trimer (Wt, unfixed) (HIV-1, subtype B, strain JRFL). Kind of experiment: native gel or EMSA. A general note: A gel shift assay detects complexes by their altered migration in electrophoresis.
In experiment [2] the target is BG505 NFL trimer (Wt, unfixed) (HIV-1, subtype A, strain BG505). Kind of experiment: native gel or EMSA.
In a further experiment the target is VRC01 (human). Kind of experiment: BLI. For orientation: In BLI a coated tip is dipped into the sample, and binding shifts an interference pattern.
VRC01 (human), sequence (light, as listed by the source, chain 2 of 2, other chains not shown): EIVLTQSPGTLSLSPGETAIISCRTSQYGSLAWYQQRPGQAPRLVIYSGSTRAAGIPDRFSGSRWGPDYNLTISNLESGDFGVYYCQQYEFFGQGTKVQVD

One may read the stoichiometry N as the number of molecules, sites or subunits per partner or assembly.

In experiment [1], “JRFL NFL trimer (Wt, unfixed) (domain or fragment)” displayed a stoichiometry N of 3.
As for “BG505 NFL trimer (Wt, unfixed) (domain or fragment)”, the stoichiometry N in experiment [2] came to 3. The same substance returned a relative binding (% of the day 0 response) after 7 days at 37°C in PBS with VRC01 (human) of 90%.
